Laboratory results published in patent US6750057 (UNIVERSITY OF FLORIDA, dated 2004).

Biological target: Native MBP (UniProt P0AEX9 27-392 = MBP)
Assay: in vitro pull-down on amylose resin, SDS-PAGE and autoradiography
Procedure: The ^35S-labeled XA21 kinase was then incubated with resin-bound MBP or MBP fusion proteins (1 ug) in the binding buffer [20 mM Hepes (pH 7.4), 1 mM EDTA, 5 mM MgCl_2, 1 mM DTT, 0.1% Triton X-100, 1 mg/ml BSA, 1× complete protease inhibitors (Roche Diagnostics)] for 120 min at 4° C. with gentle shaking. After washing with the washing buffer [20 mM Hepes (pH 7.4), 1 mM EDTA, 5 mM MgCl_2, 1 mM DTT, 0.1% Triton X-100] five times, the bound proteins were eluted with the washing buffer supplemented with 10 mM maltose and resolved by 8% SDS-PAGE according to Laemmli. Laemmli, Nature 227, 680 (1970). The gel was stained with Coomassie brilliant blue R-250, dried, and exposed to X-ray film.

B1: 35S-labeled XA21 kinase (enzyme)
chain: HKRTKKGAPSRTSMKGHPLVSYSQLVKATDGFAPTNLLGSGSFGSVYKGKLNIQDHVAVKVLKLENPKALKSFTAECEALRNMRHRNLVKIVTICSSIDNRGNDFKAIVYDFMPNGSLEDWIHPETNDQADQRHLNLHRRVTILLDVACALDYLHRHGPEPVVHCDIKSSNVLLDSDMVAHVGDFGLARILVDGTSLIQQSTSSMGFIGTIGYAAPEYGVGLIASTHGDIYSYGILVLEIVTGKRPTDSTFRPDLGLRQYVELGLHGRVTDVVDTKLILDSENWLNSTNNSPCRRITECIVWLLRLGLSCSQELPSSRTPTGDIIDELNAIKQNLSGLFPVCEGGSLEF
modifications: 35S-methionine labelled by in vitro transcription/translation. The label does not change the letters.
notes: Made with the TnT kit from a pET-28a construct; also called XA21 protein labeled with 35S; not shown: Vector-encoded N-terminal leader of pET-28a (His/T7 tag and the few residues from the BamHI/SalI primer sites)
- binding result: no binding (tested: 1 ug resin-bound protein)
